Laboratory results: IntAct's records for PubMed 29688405

How the values were obtained:
[1] = biological target: frem2_human FREM2 (UniProt Q5SZK8)
[2] = biological target: frem1_human FREM1 (UniProt Q5H8C1)
Chain of UniProt Q5H8C1 (Q5H8C1 whole entry): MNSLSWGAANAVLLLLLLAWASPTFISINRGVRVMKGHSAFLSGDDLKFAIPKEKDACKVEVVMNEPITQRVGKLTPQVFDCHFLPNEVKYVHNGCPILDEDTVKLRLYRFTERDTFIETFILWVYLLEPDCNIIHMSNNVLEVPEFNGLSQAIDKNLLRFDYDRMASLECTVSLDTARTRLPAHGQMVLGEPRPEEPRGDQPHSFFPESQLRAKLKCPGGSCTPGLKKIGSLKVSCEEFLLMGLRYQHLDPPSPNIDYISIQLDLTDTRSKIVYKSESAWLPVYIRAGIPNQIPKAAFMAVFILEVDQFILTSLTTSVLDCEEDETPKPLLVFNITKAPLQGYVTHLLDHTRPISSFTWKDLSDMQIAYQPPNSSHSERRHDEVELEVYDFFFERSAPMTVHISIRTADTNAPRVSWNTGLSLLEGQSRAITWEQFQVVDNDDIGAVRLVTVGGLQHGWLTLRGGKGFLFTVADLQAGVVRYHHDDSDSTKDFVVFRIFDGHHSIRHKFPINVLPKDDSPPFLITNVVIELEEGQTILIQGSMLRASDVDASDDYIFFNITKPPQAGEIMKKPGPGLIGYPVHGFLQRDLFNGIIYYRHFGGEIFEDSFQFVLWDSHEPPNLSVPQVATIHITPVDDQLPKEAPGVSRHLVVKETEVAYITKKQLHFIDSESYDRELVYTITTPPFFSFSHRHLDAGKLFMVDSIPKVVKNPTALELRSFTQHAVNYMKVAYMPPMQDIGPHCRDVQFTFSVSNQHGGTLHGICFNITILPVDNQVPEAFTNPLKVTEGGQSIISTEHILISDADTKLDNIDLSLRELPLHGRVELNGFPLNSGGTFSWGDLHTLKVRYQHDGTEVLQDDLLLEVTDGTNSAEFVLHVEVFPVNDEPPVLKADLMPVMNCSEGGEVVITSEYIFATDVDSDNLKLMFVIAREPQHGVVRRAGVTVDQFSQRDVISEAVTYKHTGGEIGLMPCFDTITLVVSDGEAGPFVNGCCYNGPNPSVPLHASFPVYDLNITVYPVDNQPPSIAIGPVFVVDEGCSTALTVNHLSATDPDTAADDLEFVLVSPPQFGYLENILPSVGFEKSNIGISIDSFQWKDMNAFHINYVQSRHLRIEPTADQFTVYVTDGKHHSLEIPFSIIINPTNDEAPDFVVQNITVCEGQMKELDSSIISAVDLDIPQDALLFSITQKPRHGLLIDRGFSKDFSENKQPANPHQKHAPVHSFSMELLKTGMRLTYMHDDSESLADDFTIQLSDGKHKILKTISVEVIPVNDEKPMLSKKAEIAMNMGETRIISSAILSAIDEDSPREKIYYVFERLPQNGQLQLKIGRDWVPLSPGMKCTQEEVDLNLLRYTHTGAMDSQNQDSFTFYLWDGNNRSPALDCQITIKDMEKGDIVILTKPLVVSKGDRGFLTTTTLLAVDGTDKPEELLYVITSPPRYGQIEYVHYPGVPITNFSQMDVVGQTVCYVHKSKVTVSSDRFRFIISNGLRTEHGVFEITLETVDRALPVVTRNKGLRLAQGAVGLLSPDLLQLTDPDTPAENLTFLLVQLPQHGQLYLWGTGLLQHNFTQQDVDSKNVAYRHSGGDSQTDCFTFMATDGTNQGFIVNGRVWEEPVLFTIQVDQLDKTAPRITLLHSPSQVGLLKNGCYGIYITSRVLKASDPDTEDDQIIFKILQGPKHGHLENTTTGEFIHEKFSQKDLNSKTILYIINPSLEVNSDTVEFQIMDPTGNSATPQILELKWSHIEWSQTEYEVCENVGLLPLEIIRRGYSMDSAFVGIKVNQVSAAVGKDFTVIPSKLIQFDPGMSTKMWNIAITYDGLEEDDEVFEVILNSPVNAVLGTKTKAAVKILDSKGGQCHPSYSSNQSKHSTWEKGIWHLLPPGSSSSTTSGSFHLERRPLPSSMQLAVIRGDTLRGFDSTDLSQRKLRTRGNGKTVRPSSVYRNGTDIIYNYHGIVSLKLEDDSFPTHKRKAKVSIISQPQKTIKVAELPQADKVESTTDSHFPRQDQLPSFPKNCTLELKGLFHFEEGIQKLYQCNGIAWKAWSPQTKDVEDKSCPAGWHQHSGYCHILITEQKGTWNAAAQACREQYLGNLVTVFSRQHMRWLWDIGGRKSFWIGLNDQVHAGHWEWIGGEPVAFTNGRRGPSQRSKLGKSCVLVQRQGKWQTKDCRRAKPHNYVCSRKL

Substance | effect of a mutation on the interaction [1] | effect of a mutation on the interaction [2]
FRAS1-related extracellular matrix protein 1 (Homo sapiens), Q5H8C1 L1324R | disrupting interaction strength | –
FRAS1-related extracellular matrix protein 1 (Homo sapiens), Q5H8C1 R649W | disrupting interaction strength | –
FRAS1-related extracellular matrix protein 2 (Homo sapiens), Q5SZK8 E1972K | – | disrupting interaction strength
FRAS1-related extracellular matrix protein 2 (Homo sapiens), Q5SZK8 R2167W | – | decreasing interaction strength
